Measurements reported in patent publication US20030105278A1 (MERK, published 2003).
Bridges are numbered along the chain shown (N, C = ends). Where no end group is shown, it is not given here.

B1: MCH analog SEQ. ID. NO. 37 (position 6: H) (peptide)
peptide: H-CMLGRVYRPC-NH2
modifications: disulfide 1-10
notes: ID; NO; 7 peptide; MCH position numbering
B2: MCH analog SEQ. ID. NO. 41 (position 6: Ac-D-Arg) (peptide)
peptide: XCMLGRVYRPC
modifications: Ac-D-Arg at position 6; C-terminal amide, Cys-Cys disulfide as in SEQ. ID. NO. 7
notes: ID; NO; 7 peptide; MCH position numbering; 15 (D-Arg^6)
B3: MCH analog SEQ. ID. NO. 31 (position 6: Ac-Ala) (peptide)
peptide: Ac-ACMLGRVYRPC-NH2
modifications: disulfide 2-11
SMILES: CSCC[C@@H]1NC(=O)[C@@H](NC(=O)[C@H](C)NC(C)=O)CSSC[C@@H](C(N)=O)NC(=O)[C@@H]2CCCN2C(=O)[C@H](CCCNC(=N)N)NC(=O)[C@H](Cc2ccc(O)cc2)NC(=O)[C@H](C(C)C)NC(=O)[C@H](CCCNC(=N)N)NC(=O)CNC(=O)[C@H](CC(C)C)NC1=O
notes: as for B1
B4: MCH analog SEQ. ID. NO. 36 (position 6: Ac-Glu) (peptide)
peptide: ECMLGRVYRPC
modifications: Ac-Glu at position 6 (N-terminal acetyl); C-terminal amide, Cys-Cys disulfide as in SEQ. ID. NO. 7
notes: as for B1
B5: MCH analog SEQ. ID. NO. 33 (position 6: Ac-Pro) (peptide)
peptide: PCMLGRVYRPC
modifications: Ac-Pro at position 6 (N-terminal acetyl); C-terminal amide, Cys-Cys disulfide as in SEQ. ID. NO. 7
notes: as for B1
B6: MCH analog SEQ. ID. NO. 35 (position 6: Ac-Ser) (peptide)
peptide: SCMLGRVYRPC
modifications: Ac-Ser at position 6 (N-terminal acetyl); C-terminal amide, Cys-Cys disulfide as in SEQ. ID. NO. 7
notes: as for B1
B7: MCH analog SEQ. ID. NO. 34 (position 6: Ac-Asn) (peptide)
peptide: NCMLGRVYRPC
modifications: Ac-Asn at position 6 (N-terminal acetyl); C-terminal amide, Cys-Cys disulfide as in SEQ. ID. NO. 7
notes: as for B1
B8: MCH analog SEQ. ID. NO. 42 (position 6: Ac-D-Nle) (peptide)
peptide: XCMLGRVYRPC
modifications: Ac-D-Nle at position 6; C-terminal amide, Cys-Cys disulfide as in SEQ. ID. NO. 7
notes: as for B1
B9: MCH analog SEQ. ID. NO. 45 (position 6: Ac-D-Ser) (peptide)
peptide: XCMLGRVYRPC
modifications: Ac-D-Ser at position 6; C-terminal amide, Cys-Cys disulfide as in SEQ. ID. NO. 7
notes: as for B1
B10: MCH analog SEQ. ID. NO. 38 (position 6: Ac) (peptide)
peptide: Ac-CMLGRVYRPC-NH2
modifications: disulfide 1-10
SMILES: CSCC[C@@H]1NC(=O)[C@@H](NC(C)=O)CSSC[C@@H](C(N)=O)NC(=O)[C@@H]2CCCN2C(=O)[C@H](CCCNC(=N)N)NC(=O)[C@H](Cc2ccc(O)cc2)NC(=O)[C@H](C(C)C)NC(=O)[C@H](CCCNC(=N)N)NC(=O)CNC(=O)[C@H](CC(C)C)NC1=O
notes: as for B1
B11: MCH analog SEQ. ID. NO. 39 (position 6: Arg) (peptide)
peptide: RCMLGRVYRPC-NH2
modifications: disulfide 2-11 (inferred)
notes: as for B1
B12: MCH analog SEQ. ID. NO. 69 (position 13: Cha) (peptide)
peptide: RCMLGRVXRPC
modifications: Cha (cyclohexylalanine) at position 13; N-terminal acetyl, C-terminal amide, Cys-Cys disulfide as in SEQ. ID. NO. 7
B13: MCH analog SEQ. ID. NO. 67 (position 13: Phe(pNH2)) (peptide)
peptide: RCMLGRVXRPC
modifications: Phe(pNH2) at position 13; N-terminal acetyl, C-terminal amide, Cys-Cys disulfide as in SEQ. ID. NO. 7
B14: MCH analog SEQ. ID. NO. 68 (position 13: Phe(pCOOH)) (peptide)
peptide: RCMLGRVXRPC
modifications: Phe(pCOOH) at position 13; N-terminal acetyl, C-terminal amide, Cys-Cys disulfide as in SEQ. ID. NO. 7
B15: MCH analog SEQ. ID. NO. 66 (position 13: Phe(pF)) (peptide)
peptide: RCMLGRVXRPC
modifications: p-fluoro-phenylalanine at position 13; N-terminal acetyl, C-terminal amide, Cys-Cys disulfide as in SEQ. ID. NO. 7
B16: MCH analog SEQ. ID. NO. 65 (position 13: (2′)Nal) (peptide)
peptide: RCMLGRVXRPC
modifications: (2′)-naphthylalanine at position 13; N-terminal acetyl, C-terminal amide, Cys-Cys disulfide as in SEQ. ID. NO. 7
B17: MCH analog SEQ. ID. NO. 57 (position 10: D-Pro) (peptide)
peptide: RCMLXRVYRPC
modifications: D-Pro at position 10; N-terminal acetyl, C-terminal amide, Cys-Cys disulfide as in SEQ. ID. NO. 7
notes: as for B1
B18: MCH analog SEQ. ID. NO. 50 (position 10: Pro) (peptide)
peptide: Ac-RCMLPRVYRPC-NH2
modifications: disulfide 2-11 (inferred)
notes: as for B1

Target: T1, human MCH receptor (membranes from a stable CHO or HEK-293 cell line) (human, UniProt Q99705 1-353)
T1 construct: whole, on cells; also called cloned human MCH receptor (CHO clone)
T1 sequence (Q99705 whole entry): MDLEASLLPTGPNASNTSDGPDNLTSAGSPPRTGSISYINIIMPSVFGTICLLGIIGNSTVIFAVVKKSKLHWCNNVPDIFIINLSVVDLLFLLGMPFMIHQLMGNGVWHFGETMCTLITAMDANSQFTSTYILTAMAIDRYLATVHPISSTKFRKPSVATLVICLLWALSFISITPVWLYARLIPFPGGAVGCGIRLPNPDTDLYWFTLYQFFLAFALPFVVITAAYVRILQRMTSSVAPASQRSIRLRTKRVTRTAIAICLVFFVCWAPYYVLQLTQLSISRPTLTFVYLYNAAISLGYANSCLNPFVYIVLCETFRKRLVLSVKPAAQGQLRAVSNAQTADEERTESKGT
Assay: competition vs [125I]-human MCH (Phe13,Tyr19); human MCH receptor cell membranes (Example 3)

Question: With B1 as the binder, how does the IC50 read?
Answer: 12 nM

Question: B2 was tested. Which IC50 did it give?
Answer: 0.46 nM

Question: For B3, which IC50 is on record?
Answer: 27 nM

Question: For B4, which IC50 is on record?
Answer: 19 nM

Question: How did the IC50 turn out when B5 was run?
Answer: 3.4 nM

Question: For B6, which IC50 is on record?
Answer: 4.5 nM

Question: Which IC50 does the source give for B7 here?
Answer: 2.6 nM

Question: B8 was tested. Which IC50 did it give?
Answer: 1.2 nM

Question: Which IC50 does the source give for B9 here?
Answer: 2.3 nM

Question: With B10 as the binder, how does the IC50 read?
Answer: 1.6 nM

Question: For B11, which IC50 is on record?
Answer: 0.13 nM

Target: T1, human MCH receptor (membranes from a …)
Assay: SPA competition vs [125I]-human MCH (Phe13,Tyr19); human MCH receptor cell membranes

Question: With Ac-CMLGRVYRPCWQV (disulfide 1-10 (inferred)) [MCH analog SEQ. ID. NO. 12: Ac-Cys-Met-Leu-Gly-Arg-Val-Tyr-Arg-Pro-Cys-Trp-Gln-Val] as the binder, how does the IC50 read?
Answer: 6.4 nM

Question: Which IC50 does the source give for DFAMLRCMLGRVFRPCWQY (disulfide 7-16 (inferred)) here?
Answer: 0.5 nM

Target: T2, human MCH receptor expressed from the open reading frame cDNA SEQ. ID. NO. 1 in 293-AEQ17 cells (human, UniProt Q99705 1-353)
T2 sequence (Q99705 whole entry): as above
Assay: cell-based or functional assay

Question: B12 was tested. Which Activation % did it give?
Answer: 93%

Question: Which Activation % does the source give for B13 here?
Answer: 88%

Question: How did the “EC50” value turn out when B14 was run?
Answer: > 10000 nM

Question: DFDMLRCMLGRVYRPCWQV (disulfide 7-16) [mammalian MCH (SEQ. ID. NO. 11)] was tested. Which Activation % did it give?
Answer: 100%

Question: For B15, which Activation % is on record?
Answer: 98%

Question: Which Activation % does the source give for B16 here?
Answer: 105%

Target: T2, human MCH receptor expressed from the …
Assay: cell-based or functional assay
Remark: another data set of the same source

Question: Which Activation % does the source give for B17 here?
Answer: 90%

Question: And the “EC50” value?
Answer: 190 nM

Question: What does the source list for B18?
Answer: Activation %: 4%; EC50: 519 nM

Question: How did the Activation % turn out when DFDMLRCMLGRVYRPCWQV (disulfide 7-16) [mammalian MCH (SEQ. ID. NO. 11)] was run?
Answer: 100%

Target: T2, human MCH receptor expressed from the …
Assay: cell-based or functional assay
Remark: another data set of the same source

Question: For Ac-CMLGRVYRPCWQV (disulfide 1-10 (inferred)) [MCH analog SEQ. ID. NO. 12: Ac-Cys-Met-Leu-Gly-Arg-Val-Tyr-Arg-Pro-Cys-Trp-Gln-Val], which “% Activation at 10 µM” value is on record?
Answer: 3%

Question: And the “EC50” value?
Answer: 492 nM

Question: For DFAMLRCMLGRVFRPCWQY (disulfide 7-16 (inferred)), which “% Activation at 10 µM” value is on record?
Answer: 62.2%

Question: With DFDMLRCMLGRVYRPCWQV (disulfide 7-16) [mammalian MCH (SEQ. ID. NO. 11)] as the binder, how does the “% Activation at 10 µM” value read?
Answer: 100%

Target: T2, human MCH receptor expressed from the …
Assay: cell-based or functional assay
Remark: another data set of the same source

Question: Which Activation % does the source give for B1 here?
Answer: 120%

Question: And the “EC50” value?
Answer: 809 nM

Question: What does the source list for B2?
Answer: Activation %: 86%; EC50: 45 nM

Question: Which Activation % does the source give for B3 here?
Answer: 135%

Question: What about the “EC50” value of the same binder?
Answer: 114 nM

Question: With B4 as the binder, how does the Activation % read?
Answer: 113%

Question: What about the “EC50” value of the same binder?
Answer: 935 nM

Question: B5 was tested. Which Activation % did it give?
Answer: 133%

Question: What about the “EC50” value of the same binder?
Answer: 59 nM

Question: Which results are given for B6?
Answer: Activation %: 120%; EC50: 207 nM

Question: B7 was tested. Which Activation % did it give?
Answer: 96%

Question: What about the “EC50” value of the same binder?
Answer: 150 nM

Question: For B8, which Activation % is on record?
Answer: 97%

Question: What about the “EC50” value of the same binder?
Answer: 110 nM

Question: How did the Activation % turn out when B9 was run?
Answer: 93%

Question: With B10 as the binder, how does the Activation % read?
Answer: 82%

Question: What about the “EC50” value of the same binder?
Answer: 144 nM

Question: DFDMLRCMLGRVYRPCWQV (disulfide 7-16) [mammalian MCH (SEQ. ID. NO. 11)] was tested. Which Activation % did it give?
Answer: 100%

Question: B11 was tested. Which Activation % did it give?
Answer: 106%

Question: What about the “EC50” value of the same binder?
Answer: 14 nM

Target: T2, human MCH receptor expressed from the …
Assay: cell-based or functional assay
Remark: another data set of the same source

Question: With DFDMLRCMLGRVYRPCWQV (disulfide 7-16) [mammalian MCH (SEQ. ID. NO. 11)] as the binder, how does the Activation % read?
Answer: 100%

Target: T2, human MCH receptor expressed from the …
Assay: cell-based or functional assay
Remark: another data set of the same source

Question: How did the Activation % turn out when DFDMLRCMLGRVYRPCWQV (disulfide 7-16) [mammalian MCH (SEQ. ID. NO. 11)] was run?
Answer: 100%

Target: T1, human MCH receptor (membranes from a …)
Assay: competition vs [125I]-human MCH (Phe13,Tyr19); human MCH receptor cell membranes (Example 3)
Remark: another data set of the same source

Question: How did the IC50 turn out when B17 was run?
Answer: 1.2 nM

Question: For B18, which IC50 is on record?
Answer: 700 nM

Target: T2, human MCH receptor expressed from the …
Assay: cell-based or functional assay
Remark: another data set of the same source

Question: DFDMLRCMLGRVYRPCWQV (disulfide 7-16) [mammalian MCH (SEQ. ID. NO. 11)] was tested. Which Activation % did it give?
Answer: 100%
